In US20250206841A1 (ADEPT THERAPEUTICS, published 2025):
Substitutions are numbered along the chain they refer to.

T1: human Trop-2 expressed on cell surface (human, UniProt P09758 27-323)
T1 sequence (looked up): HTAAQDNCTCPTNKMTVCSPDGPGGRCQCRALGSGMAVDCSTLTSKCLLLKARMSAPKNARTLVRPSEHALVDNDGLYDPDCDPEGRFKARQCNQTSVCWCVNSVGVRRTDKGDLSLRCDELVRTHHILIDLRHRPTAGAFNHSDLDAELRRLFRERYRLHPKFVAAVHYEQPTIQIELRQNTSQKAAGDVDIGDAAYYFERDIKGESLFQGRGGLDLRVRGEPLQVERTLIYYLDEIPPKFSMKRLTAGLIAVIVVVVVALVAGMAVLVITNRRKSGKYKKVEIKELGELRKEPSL

T2: rat Trop-2 (rat, UniProt Q6P9Z6 25-270, limits assumed)
T2 sequence (looked up): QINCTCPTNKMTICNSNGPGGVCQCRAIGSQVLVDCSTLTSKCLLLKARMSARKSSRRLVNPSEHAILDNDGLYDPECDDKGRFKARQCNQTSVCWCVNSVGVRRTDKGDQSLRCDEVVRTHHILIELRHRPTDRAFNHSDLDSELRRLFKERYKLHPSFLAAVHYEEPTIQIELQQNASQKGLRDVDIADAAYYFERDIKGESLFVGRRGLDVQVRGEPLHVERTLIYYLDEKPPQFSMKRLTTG

T3: human Trop-2-His protein (human, UniProt P09758 27-274)
T3 construct: extracellular domain; Assay paragraphs say only 'Trop-2-His'; also called hTrop-2; Kactus Cat #TRP-HM121; not shown: His tag
T3 sequence (looked up): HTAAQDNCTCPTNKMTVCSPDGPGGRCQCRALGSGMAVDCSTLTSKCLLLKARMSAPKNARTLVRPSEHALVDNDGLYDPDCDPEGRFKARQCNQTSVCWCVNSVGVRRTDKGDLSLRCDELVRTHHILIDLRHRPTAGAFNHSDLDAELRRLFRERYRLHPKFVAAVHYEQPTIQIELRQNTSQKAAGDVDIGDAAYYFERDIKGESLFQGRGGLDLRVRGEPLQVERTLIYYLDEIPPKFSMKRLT

B1: 1D10 (antibody, V domains shown)
VH: QEQLKESGGGLVQPGGSLTLSCKASGFDFNYYGVSWVRQAPGKGLEWIGYIYPAYHNTYYATWVNGRFTISSHNAQNTLYLQLNTLTAADTATYFCARDAGSTDYNLNLWGPGTLVTVSS
VL: DVVMTQTPASVEVAVGGTVTIKCQASEDIESYLAWYQQKPGQPPRLLIYEASKLASGVSSRFSGGGYGTDFTLTISGVECADAATYYCHQALTIGNVDNPFGGGGEVVVK
notes: Rabbit-derived clone; LEM construct: VH + rabbit IgG CH1 + human IgG1 CH2-CH3
B2: 72F12 (antibody, V domains shown)
VH: B1 VH with T19K, Y31N, G49A, Y55F, T85S, T103V, L107F
VL: DVVMTQTPASVEVAVGGTVTIKCQASKNIDSNLAWYQQKPGQPPKQLIYAASTLASGVSSRFSGSGYGAEFTLTISGVECADAATYYCQQALTIGNVDNPFGGGSEVVVK
notes: as for B1
B3: 62E3 (antibody, V domains shown)
VH: B1 VH with T19K, Y31E, G49A, Y55F, S102T, L107F
VL: B1 VL with P8A, A9S, S10P, E12S, V13A, R45K, G65S, D70E, H89Q, G105S
notes: as for B1
B4: 9F7 (antibody, V domains shown)
VH: B1 VH with Y31N, A100T, L107F
VL: B1 VL with R45K, D70E, H89Q, I94V, G105S
notes: as for B1

How the values were obtained:
[1] = target: T1, human Trop-2 expressed on cell surface; experiment: cell-based or functional assay
[2] = target: T1, human Trop-2 expressed on cell surface; experiment: cell-based or functional assay; remark: listed apart in the source
rat Trop-2 = target: T2, rat Trop-2; experiment: ELISA, similar to Table 24
Experimental: Purified antibodies were tested by ELISA to confirm their binding and affinity against human and cynomolgus Trop-2-His protein. Briefly, 96-well Maxisorp plates (Nunc) were coated with 100 μl/well of 0.5 μg/ml human (Kactus Cat #TRP-HM121, or Sino Biological, Cat #10428-HO8H) or cynomolgus Trop-2 protein (Kactus Cat #TRP-CM121, or Sino Biological, Cat #90893-CO8H) diluted in 1×PBS (GIBCO) overnight at 4° C. Plates were washed four times with 300 μl/well washing buffer (1×PBST, diluted from 20×PBST (Thermo Scientific) with distilled water)) and then blocked with 300 μl/well of blocking buffer (1×PBST/3% BSA (BSA, Sigma)) for 2 hours at RT on plate shaker at 100 rpm. Plates were washed and added with 100 μl/well of testing antibodies, which were serial diluted with assay buffer (PBST/1% BSA). The antibodies were incubated at room temperature for 2 hours on plate shaker at 100 rpm. Plates were washed. One hundred microliters (100 μl) of 1:10,000 diluted horseradish peroxidase (HRP) conjugated anti-hIgG antibody (Jackson Immuno Research) was added into each well and incubated at room temperature for 1 hour on plate shaker at 100 rpm. Plates were washed and added with 100 μl/well TMB substrate for color development in dark at room temperature for up to 10 minutes. After addition of 50 μl/well of stop solution (1N H₂SO₄), plates were read at 450 nm on a plate reader (SpectraMax M5). EC₅₀ values were calculated using Graphpad Prism. Sacituzumab govitecan, was used as positive control. Anti-HEL.hIgG1 was used as isotype control.
Similar assays were performed to test whether the exemplary antibodies of the present disclosure bind to human Trop-1 (EpCAM) or mouse Trop-2 (Kactus, Cat #TRP-MM121) or rat Trop-2 (kactus, Cat #TRP_RM121). No binding of the exemplary antibodies of the present disclosure to human Trop-1 (EpCAM) or mouse or rat Trop-2 has been detected.

human Trop-2-His protein = target: T3, human Trop-2-His protein; experiment: BLI (Gator Plus), purified Ab on HFC probe
Experimental: The affinity of the binding of the exemplary anti-Trop-2 antibodies of the present disclosure were determined. Assay was performed using Gator Plus according to the protocol recommended by Gator Bio Inc.. Briefly, human Trop-2-His (Kactus) was 1:4 fold serially diluted starting at 1 μg/ml. After three times of regeneration and neutralization of HFC probe, 1 μg/ml of antibody to be tested in Q buffer was immobilized onto HFC probe. […] The association and dissociation of human Trop-2-His antigen from antibody was measured on BLI machine Gator Plus. Affinity was calculated using Gator Bio analysis software. Blank control was used for reference subtraction. Sacituzumab govitecan was used as positive control.

[3] = target: T1, human Trop-2 expressed on cell surface; experiment: cell-based or functional assay; remark: listed apart in the source
[4] = target: T1, human Trop-2 expressed on cell surface; experiment: flow cytometry, MDA-MB-231-GFP cells
Experimental: Cells were then resuspended in FACS buffer (1×DPBS/1% FBS) at 10⁶/ml concentration. One hundred microliter (100 μl) of cells were aliquoted into a single well in 96 well plates. The antibodies to be tested were serially diluted at 1:3 fold starting at 15 μg/mL and were then added into each well. The antibodies were mixed with cells and the mixtures were incubated on ice for 1 hour. After washing with FACS buffer, one hundred microliter (100 μl) of 1:400 diluted PE-conjugated anti-human Fc secondary antibody (Jackson Immuno Research) was added into each well and incubated for 30 minutes on ice. After washing with FACS buffer, stained cells were resuspended at diluted 7-ADD (Biolegend, used at 1:100 dilution) and analyzed on Guava 11HT or 5HT (Luminex). Data was analyzed using Flowjo software. EC₅₀ values were calculated using GraphPad Prism. Sacitnzurnab govitecan was used as positive control. Anti-HEL.hIgG1 was used as isotype negative control. Similar assay was performed using MCF-7 cells (known to express human Trop-2).

| Binder | Internalization %, MCF-7, 0.25 µg/ml, 1 h [1] [%] | Internalization %, MCF-7, 0.25 µg/ml, 2 h [1] [%] | Internalization %, MCF-7, 0.25 µg/ml, 4 h [1] [%] | Internalization %, MCF-7, 0.5 µg/ml, 1 h [1] [%] | Internalization %, MCF-7, 0.5 µg/ml, 2 h [1] [%] | Internalization %, MCF-7, 0.5 µg/ml, 4 h [1] [%] | EC50 of ADCC (NFAT-CD16 reporter), MCF-7 [2] [nM] | EC50 of ADCC (NFAT-CD16 reporter), MDA-MB-231 [2] [nM] | binding result (rat Trop-2) | Kd (human Trop-2-His protein) [nM] | koff (human Trop-2-His protein) [s⁻¹] | kon (human Trop-2-His protein) [M⁻¹ s⁻¹] | Internalization %, MDA-MB-231, 0.25 µg/ml, 2 h [3] [%] | Internalization %, MDA-MB-231, 0.25 µg/ml, 4 h [3] [%] | Internalization %, MDA-MB-231, 0.5 µg/ml, 2 h [3] [%] | Internalization %, MDA-MB-231, 0.5 µg/ml, 4 h [3] [%] | Internalization %, MDA-MB-231, 1 µg/ml, 2 h [3] [%] | Internalization %, MDA-MB-231, 1 µg/ml, 4 h [3] [%] | Internalization %, MDA-MB-231, 2 µg/ml, 2 h [3] [%] | Internalization %, MDA-MB-231, 2 µg/ml, 4 h [3] [%] | also measured |
| --- | --- | --- | --- | --- | --- | --- | --- | --- | --- | --- | --- | --- | --- | --- | --- | --- | --- | --- | --- | --- | --- |
| B1 | 30 | 56 | 49 | 44 | 54 | 65 | 0.28 | 0.04 | no binding | 0.22 | 0.000131 | 604000 | 46 | 53 | 48 | 52 | 41 | 51 | 39 | 44 | EC50 [4]: 0.01 nM |
| B2 | 21 | 37 | 47 | 24 | 39 | 48 | 0.16 | 0.07 | no binding | 0.63 | 0.000541 | 865000 | 38 | 48 | 42 | 48 | 35 | 45 | 37 | 45 | EC50 [4]: 0.01 nM |
| B3 | 23 | 39 | 45 | 21 | 41 | 40 | 0.4 | 0.04 | no binding | 0.59 | 0.000429 | 726000 | 41 | 46 | 42 | 45 | 43 | 49 | 43 | 48 | EC50 [4]: 0.01 nM |
| B4 | 2 | 31 | 36 | 29 | 44 | 49 | 0.18 | 0.03 | no binding | 0.04 | 2.8e-05 | 634000 | 34 | 38 | 34 | 46 | 33 | 41 | 28 | 31 | EC50 [4]: 0.03 nM |
